{"source": "the RNAGym collection of RNA variant scans (doi:10.7554/elife.80360)", "parents": {"B1": {"name": "Hairpin Ribozyme (parent)", "chain": "GUCCUCUUUCACGUGCGCGUGAAAGAGAGAAGUGAACCAGAGAAACACACGUUGUGGUAUAUUACCUGGUA"}}}
{"variants_of": "B1", "experiment": "self-cleavage, relative activity (ratio to wild type); higher = more cleavage; co-transcriptional"}
{"variant": "GUCCUCUUUCACGUGCGCGUGAAAGAGAGAAGUGAAGCAGAGAAACACACGUUGUGGUAUACUACCUGGUA", "self-cleavage": 0.152}
{"variant": "GUCCUCUUUCACGUGCGCGUGAAAGAGAGAAGUGAAGCAGAGAAACACAUGUUGUGGUAUAUUACCUGGUA", "self-cleavage": 0.214}
{"variant": "GUCCUCUUUCACGUGCGCGUGAAAGAGAGAAGUGAAGCAGAGAAACACAAGUUGUGGUAUAUUACCUGGUA", "self-cleavage": 0.14}
{"variant": "GUCCUCUUUCACGUGCGCGUGAAAGAGAGAAGUGAAGCAGAGAAACACACGUUGUGGUAUAUAACCUGGUA", "self-cleavage": 0.172}
{"variant": "GUCCUCUUUCACGUGCGCGUGAAAGAGAGAAGUGAAGCAGAGAAACACACGUUGUGGUAUAUGACCUGGUA", "self-cleavage": 0.129}
{"variant": "GUCCUCUUUCACGUGCGCGUGAAAGAGAGAAGUGAAGCAGAGAAACACACGUUAUGGUAUAUUACCUGGUA", "self-cleavage": 0.173}
{"variant": "GUCCUCUUUCACGUGCGCGUGAAAGAGAGAAGUGAAGCAGAGAAACACACGUUGUGGUAUAUUACUUGGUA", "self-cleavage": 0.286}
{"variant": "GUCCUCUUUCACGUGCGCGUGAAAGAGAGAAGUGAAGCAGAGAAACACACGUUGUGGCAUAUUACCUGGUA", "self-cleavage": 0.335}
{"variant": "GUCCUCUUUCACGUGCGCGUGAAAGAGAGAAGUGAAGCAGAGAAACACACGUUGUGGAAUAUUACCUGGUA", "self-cleavage": 0.202}
{"variant": "GUCCUCUUUCACGUGCGCGUGAAAGAGAGAAGUGAAGCAGAGAAACACACGUUGUUGUAUAUUACCUGGUA", "self-cleavage": 0.0996}
{"variant": "GUCCUCUUUCACGUGCGCGUGAAAGAGAGAAGUGAAGCAGAGAAACACACGUCGUGGUAUAUUACCUGGUA", "self-cleavage": 0.586}
{"variant": "GUCCUCUUUCACGUGCGCGUGAAAGAGAGAAGUGAAGCAGAGAAACACACGUGGUGGUAUAUUACCUGGUA", "self-cleavage": 0.238}
{"variant": "GUCCUCUUUCACGUGCGCGUGAAAGAGAGAAGUGAAGCAGAGAAACACACGUUGUGGUAUAUUAACUGGUA", "self-cleavage": 0.179}
{"variant": "GUCCUCUUUCACGUGCGCGUGAAAGAGAGAAGUGAAGCAGAGAAACACACGUUGUGGUAUAUUAUCUGGUA", "self-cleavage": 0.334}
{"variant": "GUCCUCUUUCACGUGCGCGUGAAAGAGAGAAGUGAAGCACAGAAACACACGUUGUGGUAUAUUACCUGGUA", "self-cleavage": 0.13}
{"variant": "GUCCUCUUUCACGUGCGCGUGAAAGAGAGAAGUGAAGCAGAGAAACACACGUUGUGGUAGAUUACCUGGUA", "self-cleavage": 0.245}
{"variant": "GUCCUCUUUCACGUGCGCGUGAAAGAGAGAAGUGAAGCAGAGAAACACACGUUGUGGUAAAUUACCUGGUA", "self-cleavage": 0.197}
{"variant": "GUCCUCUUUCACGUGCGCGUGAAAGAGAGAAGUGAAUCCGAGAAACACACGUUGUGGUAUAUUACCUGGUA", "self-cleavage": 0.0611}
{"variant": "GUCCUCUUUCACGUGCGCGUGAAAGAGAGAAGUGAAGCAGAGAAACACACGUUGUGGUAUUUUACCUGGUA", "self-cleavage": 0.155}
{"variant": "GUCCUCUUUCACGUGCGCGUGAAAGAGAGAAGUGAAGCAGAGAAACACACGUUGGGGUAUAUUACCUGGUA", "self-cleavage": 0.119}
{"variant": "GUCCUCUUUCACGUGCGCGUGAAAGAGAGAAGUGAAGCAGAGAAACACACUUUGUGGUAUAUUACCUGGUA", "self-cleavage": 0.405}
{"variant": "GUCCUCUUUCACGUGCGCGUGAAAGAGAGAAGUGAAGCAGAGAAACACACGUUGUGGUAUAUUACCUGGCA", "self-cleavage": 0.531}
{"variant": "GUCCUCUUUCACGUGCGCGUGAAAGAGAGAAGUGAAGCAGAGAAAAACACGUUGUGGUAUAUUACCUGGUA", "self-cleavage": 0.174}
{"variant": "GUCCUCUUUCACGUGCGCGUGAAAGAGAGAAGUGAAGCAGAGAAAUACACGUUGUGGUAUAUUACCUGGUA", "self-cleavage": 0.122}
{"variant": "GUCCUCUUUCACGUGCGCGUGAAAGAGAGAAGUGAAGCAGAGAAAGACACGUUGUGGUAUAUUACCUGGUA", "self-cleavage": 0.211}
{"variant": "GUCCUCUUUCACGUGCGCGUGAAAGAGAGAAGUGAAGCAGAGAAACACACGUUGUGGUAUAUUACCUGUUA", "self-cleavage": 0.644}
{"variant": "GUCCUCUUUCACGUGCGCGUGAAAGAGAGAAGUGAAGCAGAGAAACAGACGUUGUGGUAUAUUACCUGGUA", "self-cleavage": 0.0962}
{"variant": "GUCCUCUUUCACGUGCGCGUGAAAGAGAGAAGUGAAUCAGAGAGACACACGUUGUGGUAUAUUACCUGGUA", "self-cleavage": 0.112}
{"variant": "GUCCUCUUUCACGUGCGCGUGAAAGAGAGAAGUGAAUCAGCGAAACACACGUUGUGGUAUAUUACCUGGUA", "self-cleavage": 0.567}
{"variant": "GUCCUCUUUCACGUGCGCGUGAAAGAGAGAAGUGAAGCAGAGAAACACACGUUGUGGUAUAUUGCCUGGUA", "self-cleavage": 0.15}
{"variant": "GUCCUCUUUCACGUGCGCGUGAAAGAGAGAAGUGAAGCAGAGAAACACACGUUGUGGUGUAUUACCUGGUA", "self-cleavage": 0.0514}
{"variant": "GUCCUCUUUCACGUGCGCGUGAAAGAGAGAAGUGAAGCAGAGAAACACACGUUGUGGUCUAUUACCUGGUA", "self-cleavage": 0.0453}
{"variant": "GUCCUCUUUCACGUGCGCGUGAAAGAGAGAAGUGAAGCAGAGAAACACACGUUGUGGUAUAUUACCUAGUA", "self-cleavage": 0.14}
{"variant": "GUCCUCUUUCACGUGCGCGUGAAAGAGAGAAGUGAAGCAGAGAAACACACGUUGUGGUAUAUUACCAGGUA", "self-cleavage": 0.263}
{"variant": "GUCCUCUUUCACGUGCGCGUGAAAGAGAGAAGUGAAGCAGAAAAACACACGUUGUGGUAUAUUACCUGGUA", "self-cleavage": 0.117}
{"variant": "GUCCUCUUUCACGUGCGCGUGAAAGAGAGAAGUGAAGAAGAGAAACACACGUUGUGGUAUAUUACCUGGUA", "self-cleavage": 0.152}
{"variant": "GUCCUCUUUCACGUGCGCGUGAAAGAGAGAAGUGAAGGAGAGAAACACACGUUGUGGUAUAUUACCUGGUA", "self-cleavage": 0.0384}
{"variant": "GUCCUCUUUCACGUGCGCGUGAAAGAGAGAAGUGAAUCAGAGAAACCCACGUUGUGGUAUAUUACCUGGUA", "self-cleavage": 0.16}
